Test results as given in patent US20080125364A1, “Methods and Compositions for Treating Epithelial Cancers” (priority 2004, published 2008).

B1: Occ: full-length human occludin with C-terminal myc-tag, stably expressed in Raf1-transformed Pa4 cells (protein, UniProt Q16625 1-522, looked up)
chain: MSSRPLESPPPYRPDEFKPNHYAPSNDIYGGEMHVRPMLSQPAYSFYPEDEILHFYKWTSPPGVIRILSMLIIVMCIAIFACVASTLAWDRGYGTSLLGGSVGYPYGGSGFGSYGSGYGYGYGYGYGYGGYTDPRAAKGFMLAMAAFCFIAALVIFVTSVIRSEMSRTRRYYLSVIIVSAILGIMVFIATIVYIMGVNPTAQSSGSLYGSQIYALCNQFYTPAATGLYVDQYLYHYCVVDPQEAIAIVLGFMIIVAFALIIFFAVKTRRKMDRYDKSNILWDKEHIYDEQPPNVEEWVKNVSAGTQDVPSPPSDYVERVDSPMAYSSNGKVNDKRFYPESSYKSTPVPEVVQELPLTSPVDDFRQPRYSSGGNFETPSKRAPAKGRAGRSKRTEQDHYETDYTTGGESCDELEEDWIREYPPITSDQQRQLYKRNFDTGLQEYKSLQSELDEINKELSRLDKELDDYREESEEYMAAADEYNRLKQVKGSADYKSKKNHCKQLKSKLSHIKKMVGDYDRQKT
modifications: full-length C-terminal myc-tag
notes: full-length human occludin with C-terminal myc-tag, stably expressed in Raf1-transformed Pa4 cells
B2: claudin-1: tight junction protein claudin-1 force-expressed in Pa4-Raf1 cells (protein, UniProt O95832 1-211, looked up)
Claudin-1: MANAGLQLLGFILAFLGWIGAIVSTALPQWRIYSYAGDNIVTAQAMYEGLWMSCVSQSTGQIQCKVFDSLLNLSSTLQATRALMVVGILLGVIAIFVATVGMKCMKCLEDDEVQKMRMAVIGGAIFLLAGLAILVATAWYGNRIVQEFYDPMTPVNARYEFGQALFTGWAAASLCLLGGALLCCSCPRKTTSYPTPRPYPKPAPSSGKDYV

Legend:
[1] = tested on: Pa4-Raf1 cells; assay: Cloning efficiency (anchorage-independent growth) in soft agarose; format: cell-based, rat; settings: Pa4-Raf1 cells expressing the construct, 4 weeks, colonies >0.4 mm counted
Method: Pa4 cells, Pa4-Raf1 cells and Pa4-Raf1 cells expressing full-length occludin or various occludin mutants were seeded a density of 1×10^4 cells per 35-mm culture dish in 1 ml of 0.35% (wt/vol) low melting point agarose solution diluted with complete medium. Dishes were coated with 1 ml of 0.7% (wt/vol) low melting point agarose before cell plating, and 1 ml of overlay medium was added after cell plating. The dishes were incubated at 35° C. in 5% CC>2 and 95% air for 4 weeks. The overlay medium was changed every 3 days. After 4 weeks, the cells were stained with 3-[4,5-dimethylthiazol-2-yl]-2,5-diphenyltetrazolium bromide (MTT; 0.05 mg/ml). The stained dishes were photographed, and colonies >0.4 mm in diameter were counted and analyzed.

[2] = tested on: Pa4-Raf1 cells; assay: Phase contrast and immunofluorescence microscopy of cell morphology and junctional proteins; format: cell-based, rat; settings: Pa4-Raf1 cells expressing the construct, grown on plastic
Method: Cells grown on glass coverslips or on polycarbonate filters (NK, Costar, Cambridge, Mass., US) with a pore size of 0.4 μm were rinsed with HBSS containing calcium and magnesium (HBSS^+). Cells were fixed and permeabilized in absolute methanol for 20 min at −20° C., followed by blocking in HBSS^+ containing 5% normal goat serum (blocking buffer) for 1 h at room temperature and incubation for 60 min with primary antibodies to human occludin, claudin-1, and ZO-1, (Zymed Laboratories, San Francisco, Calif.), E-cadherin (BD Biosciences) in blocking buffer. Cells were then washed, incubated for 60 min with Alexa dye-conjugated secondary antibodies (Molecular Probes, Eugene, Oreg.), followed by rinsing and mounting on slides with PROLONG ANTIFADE medium (Molecular Probes). For double labeling of junctional proteins, cells were fixed and permeabilized in absolute methanol and blocked in blocking buffer. Cells were sequentially stained with two primary antibodies. Donkey anti-goat and anti-rabbit antibodies conjugated to fluorescent red or green Alexa dyes (Molecular Probes) were used for detection of the respective primary antibodies. Stained cells were scanned using a Zeiss LSM510 laser scanning confocal microscope (Zeiss Microimaging Inc., Thornwood, N.Y.) coupled to a Zeiss 100M axiovert and 40× or 63× Pan-Apochromat oil lenses. […]

[3] = tested on: Pa4-Raf1 cells; assay: Transepithelial electrical resistance (TER) of monolayers on filter supports; format: cell-based, rat; settings: Pa4-Raf1 cells expressing the construct, after 5 days of culture on semi-permeable filter supports
Method: (§1) For transepithelial electrical resistance (TER) measurements, cells were plated on polycarbonate filters with a pore size of 0.4 μm. A Millicell-ERS volt-ohm meter (Millipore) was used to determine the TER value. All TER values were normalized for the area of the filter and were obtained by subtracting the contribution of the filter and bathing solution. Paracellular permeability to fluoresceinated dextran (FD-3; MW 3000) was assessed according to previously published methods (Sanders et al., 1995). Briefly, cells were grown on polycarbonate filters with a pore size of 0.4 μm. TER was measured and then cells were washed in Hanks balanced salt solution/10 mM HEPES (HBSS^+) and equilibrated at 37° C. for 10 min on an orbital shaker. Cells were loaded apically with 1 mg/ml FD-3 (Molecular Probes) at time=0. Basolateral samples were taken at t=0, 30, 60, 90 and 120 minutes, and fluorescence intensity was analyzed on a CytoFluor 2350 Fluorescence Measurement System (Millipore, Cambridge, Mass.). FD-3 concentrations transported were extrapolated from a standard curve (generated by diluting known concentrations of fluorescent tracer) and expressed as ng FD-3 transported/cm^2/hour. Numerical values from individual experiments were pooled and expressed as mean ±standard error of the mean. Data shown are representative of at least three experiments.

[4] = tested on: Pa4-Raf1 cells; assay: Tumorigenicity in nude mice; format: in vivo; settings: Pa4-Raf1 cells expressing the construct, injected subcutaneously, 6 weeks post injection
Method: The nude mice were used to assay tumorigenicity in vivo. Pa4 cells, Pa4-Raf1 cells and Pa4-Raf1 cells expressing fall-length occludin or various occludin mutants were grown to logarithmic growth phase, harvested, washed, and resuspended in PBS for injection. Each of the cell lines (1×10^6 cells in 200 μl PBS) was injected subcutaneously into the flanks of four male nude mice. Tumor formation was monitored daily. All nude mice were sacrificed at six weeks, with tumors being isolated and analyzed.

[5] = tested on: Pa4-Raf1 cells; assay: Oligonucleotide microarray comparison of mRNA abundance; format: cell-based, rat; settings: for correction of Raf1-driven gene expression changes (mRNA abundance): forced expression in Pa4-Raf1 cells
Text: Based upon internal quality control data, differential expression values greater than 1.5 obtained with Agilent Oligonucleotide microarrays are likely to be significant. Using this benchmark, we compared microarray data for entire rat genome obtained from Pa-4 cells before and after stable transfection with constitutively active Raf1 (Pa4-Raf1). […] Genes affected by active Raf1 in Pa4 cells included transcription factors, response elements, regulatory molecules, growth factor receptors, cell-cell contact proteins, and cytoskeletal elements that were consistent with those identified in other studies examining epithelial cell gene modulation associated with Ras/Raf/MAP kinase pathway activation. The strongest mRNA abundance profile shifts occurred in genes associated with cell polarity, proliferation and sensitivity to apoptotic stimuli. Numerous genes identified by the present studies have been previously reported as being targets of cell regulation in other cancer cell microarray studies.

[6] = tested on: Pa4-Raf1 cells; assay: Paracellular permeability to FD-3 (3 kDa FITC-dextran); format: cell-based, rat; settings: Pa4-Raf1 cells expressing the construct
Method: as §1

Row | Molecule | average number of colonies on soft agarose [1] [colonies] | rescue of epithelial cell morphology [2] | rescue of epithelial cell morphology ([2]; listed as full-length occludin) | transepithelial electrical resistance (TER) [3] [O-cm^2] | tumor formation [4] | growth factor binding protein mRNA up-regulation ([5]; Pa4 Raf1 cells, forced occludin expression) [fold] | aquaporin-1 mRNA levels ([5]; Raf1-induced nearly 4-fold increase) | correction of Raf1-driven gene expression changes (mRNA abundance) [5] | correction of Raf1 gene modifications of Table 1 ([5]; genes of Table 1) | REX-3 mRNA abundance ([5]; up-regulated 37-fold by Raf1) | FD-3 flux rate [6]
1 | B1 | 5 | recovered epithelial morphology | tightly clustered colonies | > 900 | failed to produce tumors | 35 | corrected | remarkable reversal of essentially all of the genomic changes | corrected | down-regulated by occludin to an equivalent extent | −1,500 ng/cm^2/hr
2 | B2 |  |  |  |  |  |  |  | fails to affect correction of gene modifications |  |  | 
